Data as given in the domain aggregation screens of Martell et al. (2025).

Experiment: soluble fraction after stress (log2 fold change); higher = more stays soluble; pooled small domains, quantitative proteomics
Conditions: stress: pH 4
Summary of the method: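 Aggregation propensity is estimated from the fold change in each domain's soluble amount after acid stress. Pooled small-domain libraries were stressed at pH 4, and higher log2 values mean more stayed soluble.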

Sequence	soluble fraction (log2)
HMSNIIIYPNPTNDGLIHIKGSKFPFNYALYNLSGKLIETGKKNQIQLNDRGVYLLKIQTEGQTYFKKII	-0.754
HMSNNILEISSNKKNMKIQENKNLVESYYSKTENLYSFKLVFKNKRDLDQFLKEVYEDDSTINYKTSS	-0.524
HMSNPPLPFLAKTKVSWTGEQDGDLGFLENEVVKVFHVVDELWWQGSLSRNGAEGIFPRDFVEVISAP	-1.27
HMSNSWSYSEFMKAVESGQVESVTISGQSIKGTSRGGQAFESVLPAFDDKLMDTLLVNDVEVIGEKP	-0.149
HMSNTGDIIRKLREESGVTAKELAHRIGLSASQMSRLESGKRRINSEVLTRIARALEVAPSQLID	0.17
HMSNTIFGINGPVVTVASKDFSMQEMVYVGNERLVGEVISIDDDLTTIQVYEVTTGLKPGEPVVGTGSAM	-1.64
HMSNVDYSQFKKDTVVEHTKFGRGIIIQTSGDGEDKIAAIAFKGLGVKRFSLAIAAASLKIIGKNDE	0.194
HMSNYFIEISKDSLARINDEIELDVLRETSDTIIISQEEKTNTISSFIKVLFERQIDILSIQNR	-1.25
HMSNYYNILGVNKSSTQDEIKKAFRKKAVEHHPDKGGNEATFKKINEAYNTLSDNNKRHMYDMQQSG	0.267
HMSPDALSNLPIGSEIKFTLWDGTEKRLVKHPAAYQFSRPFWMNLNEYTYVPVNRIPKNYEVIRL	-0.0954
HMSPEVEEISIDHLKAGMRILSDLRLPNGTLVAPKGSVVDAHFIKIVENYVISYFGNPFPDRIKVIM	0.144
HMSPEWTPAEQDAIDKASEGEYGEALQRVLSGDYEPMDIPDALWGVQQVADKDTYSSIQKKIADIGN	0.422
HMSPIPLPVERAIHKLGSDISLARRRRHISQASLAERMGASLSTVRRMEKGDVRVPIHFFARALHVFG	0.158
HMSPIQLKYNEYLIYIDEGKINTAEIHGNKITGKLKEGSEYVVTIYPELIASITEKLAENNVQTQLIQ	-0.466
HMSPLPDRESLGAIEKLISLLGSSEWTVREKATRELGAFGYLARPVLQRELATSGDPEVSRRLERILSNL	-0.00724
HMSPLTPEEAEVLRILGDHGDMTVDNIATEGKMSAAAVLRVLGVLSAYGLAVPSGPGRWGSRAA	0.152
HMSPPPRPSHPEAAGLRHLAFEVDNIDDAVRHLDRLGVPHEPVRTDEYTGRRFLFFTDPDRLPLELYEK	-0.572
HMSPQIDYFDDEELDVYRQIAPEAYTDEQIEVFRDILYTLRPEEVEEWLISLEKREINLPLILRQEAIELI	0.156
HMSPRQVTAVRSGSPMPVLPGEDWRLYDASGALVARGSGAAPIPKSTGLLRLNSEGLDGLADRWIWVL	-0.154
HMSPSRRENLTAAAKEYFVNTQIRHKTFGNGVIIKRSGNIAAIRFDNGTIKQIDLIAALQAKVLSIL	-0.512
HMSPSTNKTFSFSKENISIGQTVFIKKLNQNATVLTLPNKSNQLQVQFGVITMNVKLEDLALPTN	-0.0832
HMSPTSSRAAQARIRKMIESESPLKPISDSQLAARLGEEGISIARRTVAKYREQMNILPASQRRGV	-0.0284
HMSPVPRIEIELTSSKEDGSWTWRAVGAREPRGSLDGALLAKPAAVGDVLRVETDQFLDGMTVTAILPPRD	-0.6

Sequence	soluble fraction (log2)
HMSQAVEISSVKTQIDGKSYYLHTIKQGQTLYGISKAYGVSVEELTTVNPETSKGLKVGQIIKVPDTKT	-0.303
HMSQDLVVLGDSMLNNALKAFHIDPNAIKKKYWDKLILDYHLKSKEEVLTEIALGKKINVMVAHQLTSIMD	-0.238
HMSQEILSNQSIKDMIELGFEEQTIIDKIQTSTSDFDTTIEELKALKQLGASPTILSAMIKSIKK	-1.97
HMSQLDITEARIVVSGGLGMQGPENFKLLEELAKVLGGAVGASRPVVDNGWREYSNQVGQTGKIVAPELYV	-0.751
HMSQLETEEAKRIVLKDLLRLYNNYNIIELEEDEFDRFITYLNMPYDFLQKTSDYDLAVSIKRMYASY	-1.79
HMSQNISSTKLIPENIKIGMSVFVIPLQQKGIVQSLPNRSKEVLVQIGNAKINVKINNLKLIED	-0.238
HMSQNTHTIPSREDILGIFRSVNAPLDPQSLGKTLQVHADSMDVLVRRLKAMERDGQLKSDASGVFSLAD	0.314
HMSQNVQDVFLNHVRKSKNPVTVFLVNGVKLQGIITWFDNFSVLLRREGHTQLVYKHAISTVMPSGPIQLF	0.22
HMSQPALSYAFAKAQGVIVTALGDVAEVARRKGSQPQALAEVRRIAGRPLALREVDDAAFDRLLQDHYARS	-0.0203
HMSQQMSYSDFVKAVSARQIREAQIQGDKIYATDSTGNRLTIIRLDNDQRLVDDMINNDVNIIGLEE	-0.534
HMSQSDLASAIGARVTIRLREASGGFRDIVGVLQRFGSGYGELINSKGEALTFSESEIAIWREVKA	0.361
HMSQTELIIVEEEMDGERLDAFLAEQVEQLSRSAVKNLINEGQVLVNGAKQKASYHVREGDEISIEIPEPQ	-0.455
HMSQTPDLQQERANLGDNADARIEAVDLWANKFFPEEHADAILQIGQTAKGIEALEFIMSKV	-0.345
HMSQVLVRINQDLNIRSGPGAQYDIIAVYRSGAIASVIGTYNNWYKVNFELDSKSYTGWINGTFTSR	-0.245
HMSQYELEDVEKQRLKFKNGDEKALWLLSDIYKDNSQSYEVRLAALRALSESRHPLIIFDIQSSVK	-0.898
HMSRAAQRLFMSQPPLSRHIRQLEDRLGVTLFVRHTRGLTLTEDGQRVLEMVRPLLDLQDKTYAALSQLT	≥ 0.43
HMSREMIKSELESISGLGKSGIEKLYTHFINIENIKSASLENIRNIPGISYKVADNIYKHFH	0.385
HMSRLGINTTIEDIKMVGKIIMPLLKQGQSVYQILASHPEIPYSEKTLYSYIEDNIFKDAGIDISVFDL	-0.491
HMSRLLERARDLMAKPGAWLSAEGGAYALRLSPDRRSRISLTLTETEFRALIDQPGLRVRPGGGWSGRA	-0.484
HMSRMGDSIKSLRSRNNMSQDALAEKLNVTRQAISNWENSKTQPDADTLKNLGIIFNVTVDEIINNDF	-0.587
HMSRQREWIYDYIQSHPDRHMSVEEIYEGLKAENREVSVATVYRNLKILQDENRIASLMLESGKQVFDK	-0.0969
HMSRREEALIALAQRVARQVARTKQPVTLEPMPANERRVIHVALRDNPDVETRSSGEGDQRRVTVYPRQ	0.202
HMSRRIEIELTSSRPDGSWTWRAAGAREPKGVLDGTLLSQGSKPGDVVKAEAEFDIDGITIVSITQ	0.0267

Sequence	soluble fraction (log2)
HMSRSKLNRLDKIKKMLIAQTGISIKEFSASLNVSEITIRRDLNLLEEQGFIRLVNGVAIYRM	-0.315
HMSRSLEIDVLVKALLEQDRRKFMLVTDGTADVTVRYNNALPSLFREGQGVVAEGLMDNGKFIATNVLAK	-0.793
HMSRSLLAALEKLRESHTGSLPASVLSSAQRRSLESFAQTTKSVQMRPSGRGVVFAIINPEVVDKHWRELS	0.22
HMSRSSQMVNFIRLLSQEKKVSVNSIFSSSVQLSDGIIVKINDFYYRVNLSLDQKTYSLVEVS	0.12
HMSRVKQERLNRFVEAFEAYFRSVHPGEIDVEYLKSDEFGDIFESILHRVMHTASEEKMHRFKKILLNEM	-1.39
HMSSADIPFSRFIDDVEAQRVEKVTIDGVNVTGRYRSDGAAFKTIIPSQYDGLVPILRQNKVDITVKDA	0.41
HMSSAMDMISRDVRNADSISISTTTYSKKIDLYNFDRNGDIEELHSYSAKNDLGILYNDEPI	0.191
HMSSANIKLDPLERQATQQIINNIKRKYPNATIENLQEVANDAIATMRQPEFSNYTVDKFVSYFLSM	-0.429
HMSSARKVTVRGVRELPGIFMEKAEILDDGVRFFYRGEMEKLIGALQGLPIRDLTITEPDLEEVFLHFY	-1.43
HMSSASETQYELALQAMRDGDNDAALRSLSTALASGFSDWQRIDEEPLLAALANDVRFQVLRSRWK	-0.92
HMSSDLVDYLVKYVAIVDNQEIEIADSKIGTAELGTTVSEVAKTVGNYYPKATVLSVKITGRNQEIVFEY	-1.8
HMSSEPYISLPRGAAHDAYPLSTKAVAAQLGMSEVWLANLRSKGKGPRYVRVGTRVFYSPEDVAQWRRAT	≥ 0.43
HMSSESIIIKKLIEEFIHNENKYSPLSDEKLSYLLKNKGFSVARRTVAKYRDELGILSTRERKIKI	0.393
HMSSEYARFFSGNYYEVLGVAKNASYDEIKAAWKKLVKEYHPDLHPQRQEEFTKIIQKINEAYEYFKKMH	-0.201
HMSSFFLIDVSQVRIGMYIQLDVGWMRHPFPVNSFRITNQEQLDTLRSLNLAQVRWSPAKSDL	-1
HMSSFIEAIKQSGTDSLDVIMKNGRVYRYVGIDADRLGYLLEPHQQKLSLEESIGRFYIDYIKGIYEAIE	-1.05
HMSSGNLESLLNKLHNEDYFVRLDAVKALGALGDPGAIDYLIEMLSENGIMRGWVANSLAALGEAQWKKII	-1.44
HMSSHSAEAVRHRIKSMIDHEARDGDVLSDDRIVELLNQAGIDIARRTVAKYREALRIPSSVERKRRLKA	0.0173
HMSSKRDQFIVLGQEILEKMFKNEGLEFSEKGLLAVMPNFEAESINDIYAKVGEGLISGWDVMKAVYPAY	-0.841
HMSSKSLAALSPQEYRLLPLVAEGKTNKEIASALALSDKTVKNYLANIFSKLGITRRTQAATLYARAL	0.252
HMSSKYLKIYNDIVGKIDSGIFEANTKLPSESQLMDEYNVSRYTVRKSLNLLEQNGYIEKSKGKGSFVLDM	-0.1
HMSSLQFVTLTLMEGHAWVGREIQELLMPPQMRIALIRRGDSQVIPKGSTILESADELILSAIEYQG	-2.51
